Assay results: the DeepSol protein solubility set

Assay: soluble on expression in E. coli; label from the status in PepcDB or PDB records

Soluble on expression in E. coli, soluble:
MKRVLSGIQPSGEIHIGNYLGAIKQWVAIGEKWGRDAFFCIVDYHALTNPLAYDPSTLAQRTFEAALVNIAAGLDPEKVTLFVQSHVPEHTELSWVFTTLTPLGDLTRMTQFKDKASKQETVWSGLLMYPVLQAADILIYKADTVPVGEDQVQHIELTREIARRFNHLFGETFPEPQALLNPEAPRVPGIDGKAKMSKSLGNTIGLLEPEESIWQKIQHLPDDPQRIRLSDPGDPERTILFTYLSYFAPKDLVEALKEEYRKAGVGTYVVKRILFDHLMEALRPIRERAEALKKDPDYVMDALLEGAKRARAVAQATMEEVREKVGLLLPRKRPVLR
MRVDLNSDLGESFGRYKLGLDEEVMKYITSANVACGWHAGDPLVMRKTVRLAKENDVQVGAHPGYPDLMGFGRRYMKLTPEEARNYILYQVGALYAFAKAEGLELQHVKPHGALYNAMVKEEDLARAVIEGILDFDKDLILVTLSNSRVADIAEEMGLKVAHEVFADRAYNPDGTLVPRGRPGAVIEDKEEIAERVISMVKDGGIRAINGEWVDLKVDTICVHGDNPKAVEITSYIRKVLEEEGVKIVPMKEFIR
MSLNGFCARLRAITFNERLKMKIAVLLSGGVDSSYSAYSLKEQGHELVGIYLKLHASEKKHDLYIKNAQKACEFLGIPLEVLDFQKDFKSAVYDEFINAYEEGQTPNPCALCNPLMKFGLALDHALKLGCEKIATGHYARVKEIDKVSYIQEALDKTKDQSYFLYALEHEVIAKLVFPLGDLLKKDIKPLALNAMPFLGTLETYKESQEICFVEKSYIDTLKKHVEVEKEGVVKNLQGEVIGTHKGYMQYTIGKRKGFSVKGALEPHFVVGIDAKKNELIVGKKEDLATHSLKAKNKSLTKDFKDGEYFIKARYRSVPTKAFVSLKDGMIEVEFKEPFYGVAKGQALVVYKDDILLGGGVIVEGHHHHHH
MVIDQTDPIYVLFHDEEWGVPVRDDKKLFELLVFSQALAEFSWPSILRRRDDFRKLFEEFDPSAIAQFTEKRLMSLRVNGCLILSEQKLRAIVENAKSVLKVKQEFGSFSNYCWRFVNHKPLRNGYRYGRQVPVKSPKAEYISKDMMQRGFRCVGPTVMYSFLQASGIVNDHLTACFRYQECNVETERETKSHETETKLDLHSPLLV
MAVKRPVRVLVNMDGVLADFESGLLQGFRRRFPEEPHVPLEQRRGFLANEQYGALRPDLAEKVASVYESPGFFLNLEPIPGALDALREMNDMKDTEVFICTTPLLKYDHCVGEKYRWVEQNLGPEFVERIILTRDKTVVMGDLLIDDKDNIQGLEETPSWEHILFTCCHNQHLALPPTRRRLLSWSDNWRGIIESKRASL
MSQWTTVCKLDDILPGTGVCALVEQQQIAVFRPRNDEQVYAISNIDPFAQASVLSRGIVAEHQDDLWVASPLKKQHFRLYDGFCLEDGAYSVAAYDTQVTNGNVQISIADSDVAVDNSQPLPLEHHHHHH
MTRGLDYYEVMGLTRSANDIDIRRAYRRLALKYHPDINKDGAAGDEFLRICEAYEVLCDPKTKGFYDLYGEDALKDGISDGNGGLKGPMYRFNPEESPKAVFERFFGTANPYEALEALSNQFESMTSEEAPARGKNKVYPLELTLEEIFHGCLKKVAHKRKVLLFSGEYVEEERQLTVDVKPGLPTGTRFVFEGEGNKTPKKEPGPVVFVLKPKPHPRFVRRGSDLVHKVTLPLHHALIGTTLDIRTLDDRDLKVPISDIMRPGSSLTVPGEGMPLPATPSARGNLVIEIDLLFPTHLTETQKMLLRSAFF
SLPHPAPGPGDPEDPRLAEVVDAVRSSRRYQSVAPETVRRLATSALVASRGDLAEAVKRTKRGLHEIFGAYLPSPPKYDALLRQLRGAVDAATTRPCGHPAPRHVHARLHPRALPILDEFYREVFARCADPASVRDLACGMNPLAAPWMPGSDAFTYHASDIDTRLMEFLDAALETLGVAHDVRVRDLMTGVGEVETDVTLLLKTVPCIEAQGRGQGWDLIDAIRSPLVVVSFPTKSLGQRSKGMFNTYSANFDAWLENRPHDVEQLEFRNELVYFVRKNA
MSLGASTNWDDHAIIIFGYPETIANSIILHFANFGEILEDFRVIKDFKKLNSKNMSKSPSLTAQKYPIYTGDGWVKLTYKSELSKSRALQENGIIMNGTLIGCVSYSPAALKQLASLKKSEEIINNKTSSQTSLSSKDLSNYRKTEGIFEKAKAKAVTSKVRNAEFKVSKNSTSFKNPRRLEIKDGRSLFLRNRGKIHSGVLSSIESDLKKREQASKSKKSWLNRLNNWLFGWNDLEGHHHHHH
MKAYAKKRISYMPSSPSQNVINFEEIETQKENILPLKEGRSAAALSKAIHQPLVEINQVKSSFEQRLIDELPALSDPITLYLEYIKWLNNAYPQGGNSKQSGMLTLLERCLSHLKDLERYRNDVRFLKIWFWYIELFTRNSFMESRDIFMYMLRNGIGSELASFYEEFTNLLIQKEKFQYAVKILQLGIKNKARPNKVLEDRLNHLLRELGENNIQLGNEISMDSLESTVLGKTRSEFVNRLELANQNGTSSDVNLTKNNVFVDGEESDVELFETPNRGVYRDGWENFDLKAERNKENNLRISLLEANTNLGELKQHEMLSQKKRPYDEKLPIFRDSIGRSDPVYQMINTKDQKPEKIDCNFKLIYCEDEESKGGRLEFSLEEVLAISRNVYKRVRTNRKHPREANLGQEESANQKEAEAQSKRPKISRKALVSKSLTPSNQGRMFSGEEYINCPMTPKGRSTETSDIISAVKPRQLTPILEMRESNSFSQSKNSEIISDDDKSSSSFISYPPQR
DAVELFKKANAMLDEDEDERVDEAALRQLTEMGFPENRATKALQLNHMSVPQAMEWLIEHAEDPTIDTPL
MARVYVSTVVNARNDRVWARVRDFNGLPNWHPAIAESRIEGGEPSDKIGCVRDFRLRNGDRIREKLLGLSDYDMFCTYSILESPMGVENYVATLRLTPVTDGDQTFMEWTAEFDCAPERETELVNNIGGGVFQGGFDALKRVFGGLEHHHHHH

Soluble on expression in E. coli, not soluble:
MIDTTVFQDKTAVYYTLGCKLNFSETSTIGKILREAGVRTARKGEKADLCIVNTCSVTEMADKKCRQAIHRLVKQHPGAFVVVTGCYAQLKPGDVAKIEGVDVVLGAEQKKDLLQYLGDLHKHEGGEAYTTATKDIRSFAPSCSRGDRTRFFLKVQDGCDYFCSYCTIPFARGRSRNGTIASLVEQARQAAAEGGKEIVLTGVNIGDFGKSTGETFFDLVKALDRVEGIERYRISSIEPNLLTDEIIEYVSRSRSFMPHFHIPLQSGSDEVLQLMRRRYGTELFASKIAKIKEVMPDVFIGVDVIVGTRGETAGYFEKAYEFIHGLDVTQLHVFSYSERPGTQALKIDHVVTPEEKHQRSQRLLALSDEKTKAFYARYIGQTMPVLMEKPKAGALMHGFTANYIRVEVESDAALDNKVVNVLLGDFNEEGTALKGTITQLEHHHHHH
MSLRVRQIDRREWLLAQTATECQRHGREATLEYPTRQGMWVRLSDAEKRWSAWIKPGDWLEHVSPALAGAAVSAGAEHLVVPWLAATERPFELPVPHLSCRRLCVENPVPGSALPEGKLLHIMSDRGGLWFEHLPELPAVGGGRPKMLRWPLRFVIGSSDTQRSLLGRIGIGDVLLIRTSRAEVYCYAKKLGHFNRVEGGIIVETLDIQHIEEENNTTETAETLPGLNQLPVKLEFVLYRKNVTLAELEAMGQQQLLSLPTNAELNVEIMANGVLLGNGELVQMNDTLGVEIHEWLSESGNGE
MGSDKIHHHHHHMEKDKKIPAKIYPFYPNGQFYFERGVEAFRDQRIKEAIRYLVRASELEPGEAVILCQLAICYTEIGQFHKSNQLLREVLEQRNGNMEYCYYFIANNFAYMKDYRRALQYANRYLDSSTDGEYTEEAKDLIEVLLEETPFGETIENGFSKLEQEFYSYKKEINRYLAEEDSASACDILRKVIDEKPNFWPAYNQLASLYFEQLKEEEGVRVLSDLLSRNPGNLLGICDLFIYHFYKGNRKEADELYLELRDVLPVLAHHKEKLGLIHAMMGEYEEADDLLEQVADLEVTERSKYYYFRAKSSYYLGDVEGAKMFWHSFLECDLYEDVRFPWEQEPDLTNDTRLVLEMLQEEDDLTHMLGVYALTISGNRPELVLFHPLLDMSDWSYMEHLMFTNFDYFPDGAIEQNGYLIAKAMIILKENGILLNEEYMALYKQMFSLVLIDAGKDLILGRYTIETVASAIAKLFLPHLKLQLVEEFECSKCARDIERVLSR
MGSDKIHHHHHHMPRKTATATKLFVLDTNVLMHDPTSLFRFEEHDVYVPIATLEELDQHKKGMTEVSRNARQASRFLDEIVRKLDSIDEGVPLAPHSHNAATGRLFLQTQAISGDIPVNLPTSKVDNQILGVVLFLSRHHTKRQVILVSKDINMRIKARALGLPAEDYFNDKVLEDTDLLYPGLRELPADFWDTHGKGMESWQANGHTYYRVKGPLVASLLPNEFVFQEGASPLYAKVLKVEGKHAEMVTIRDFGHHKNNVWGITARNREQNFALNVLMDPEIDFVSLLGQAGTGKTLLTLAAGLAQVLDKKIYSEIIMTRVTVPVGEDIGFLPGTEEEKMTPWMGALEDNLDVLNKSDDEGGDWGRAATQDLIRSRIKVKSLNFMRGRTFLNKFLIIDEAQNLTPKQMKTLITRAGPGTKVVCLGNIAQIDTPYLTEGSSGLTYVVDHFKGWPHNGHVTLQRGERSRLADYAAEVL
MSTPIIPWMGGKRRLADRLIPLFPPHECYVEVFAGGAALYFMRPQAAPVEVLNDINGDLVNLYRVVQNHLEEFVRQFKWALSSRQVFEWQKMTRPETLTDIQRAARFFYLQHHAFAGKVSGQTFGTATTGPAINLLRIEENLSAAWQRLSGTYVENLPWLECAERYDRPQTFHYMDPPYWQTAGYGVDYPFENYERMADFMRTCKGKVMVSINDHPDIRRVFEEFHFETVDIRYTSSNQRRGRTDVVGELVIMNWEP
LAGIAGVDRDPPGWPQHSHLLAGDPERFRHQLQRAETTNSIECFVAEWHHAGVAADMTRPWPTVVQGGAGQRRRRDVEPDRKTPVRWMSGQRLSEITWPTTDIEHSVGAAEVQRHRGAVPLGSGGDAAGKVEGGRTPQPFVQP
MGSDKIHHHHHHMKEAGILFEELVSIMEKLRSPEGCEWDRKQTHESLKPYLIEECYELIEAIDEKNDDMMKEELGDVLLQVVFHAQIARERGAFTIEDVIRTLNEKLIRRHPHVFGDSPGYSYKQWEDIKAQEKGKKKSSRIGEINPLVPALSMARRIQENASQVGFDWKDPEGVYEKIEEELKELKEAKDPRELEEEFGDLLFSIVNLSRFLNVDPESALRKATRKFVERFKKMEELIEKDGLVLEELPIEKLDEYWEKAKGGDET
METTVMPAAASVQKQQGLNQVVINKVQRMIESRQGGVMDTINRLLSEGRIAQDFIAPIGVSQRSKERPVISFKAEGRVQMAMPEGNFNLHGNAISQISEKMGIPAKYLRELSAGDVWQKQLCATILNEHSGWTERTRVLIRAVGMEVRGVLSDSYRRLNSVDILTAFIREAGGQGAVVSDAYMNDTKVWCETILPTPIEIPTRKNGTVIIFAGARFSTSDYGNGSVEMRSFLLNGACLNGMVRESVMRQIHLGGRLPESLSLSQKTYELDTQTTVSAVSDLTKGLYSKDTIMQKAIEIQGASEIDVDFDKELKNLVQKGALLKNEGREVEKLLMNNNPDDGVTGGATLWKLTQGITAFAREQQPERCRELHEISGQLMNRVKIN
MGHHHHHHSHMGCDGGTIPKRHELVKGPKKVEKVDKDAELVAQWNYCTLSQEILRRPIVACELGRLYNKDAVIEFLLDKSAEKALGKAASHIKSIKNVTELKLSDNPAWEGDKGNTKGDKHDDLQRARFICPVVGLEMNGRHRFCFLRCCGCVFSERALKEIKAEVCHTCGAAFQEDDVIVLNGTKEDVDVLKTRMEERRLRANREKKTKKPKAAESVSKPDVSEEAPGPSKVKTGKPEEASLDSREKKTNLAPKSTAMNESSSGKAGKPPCGATKRSIADSEESEAYKSLFTTHSSAKRSKEESAHWVTHTSYCF
